Source: article PMC8433531 (Proceedings of the National Academy of Sciences of the …, 2021)

B1: Lactoferrin (protein, UniProt P24627 20-708, looked up)
Lactotransferrin: APRKNVRWCTISQPEWFKCRRWQWRMKKLGAPSITCVRRAFALECIRAIAEKKADAVTLDGGMVFEAGRDPYKLRPVAAEIYGTKESPQTHYYAVAVVKKGSNFQLDQLQGRKSCHTGLGRSAGWIIPMGILRPYLSWTESLEPLQGAVAKFFSASCVPCIDRQAYPNLCQLCKGEGENQCACSSREPYFGYSGAFKCLQDGAGDVAFVKETTVFENLPEKADRDQYELLCLNNSRAPVDAFKECHLAQVPSHAVVARSVDGKEDLIWKLLSKAQEKFGKNKSRSFQLFGSPPGQRDLLFKDSALGFLRIPSKVDSALYLGSRYLTTLKNLRETAEEVKARYTRVVWCAVGPEEQKKCQQWSQQSGQNVTCATASTTDDCIVLVLKGEADALNLDGGYIYTAGKCGLVPVLAENRKSSKHSSLDCVLRPTEGYLAVAVVKKANEGLTWNSLKDKKSCHTAVDRTAGWNIPMGLIVNQTGSCAFDEFFSQSCAPGADPKSRLCALCAGDDQGLDKCVPNSKEKYYGYTGAFRCLAEDVGDVAFVKNDTVWENTNGESTADWAKNLNREDFRLLCLDGTRKPVTEAQSCHLAVAPNHAVVSRSDRAAHVKQVLLHQQALFGKNGKNCPDKFCLFKSETKNLLFNDNTECLAKLGGRPTYEEYLGTEYVTAIANLKKCSTSPLLEACAFLTR
modifications: iron-free apo form
B2: hololactoferrin: iron-saturated hololactoferrin (Sigma-Aldrich; L4765) (protein, UniProt P24627 20-708, looked up)
Lactotransferrin: B1 Lactotransferrin
modifications: iron-saturated
B3: Human Lactoferrin: native human lactoferrin (Creative BioMart; LFT-8196H) (protein, UniProt P02788 20-710, looked up)
Lactotransferrin: GRRRSVQWCAVSQPEATKCFQWQRNMRKVRGPPVSCIKRDSPIQCIQAIAENRADAVTLDGGFIYEAGLAPYKLRPVAAEVYGTERQPRTHYYAVAVVKKGGSFQLNELQGLKSCHTGLRRTAGWNVPIGTLRPFLNWTGPPEPIEAAVARFFSASCVPGADKGQFPNLCRLCAGTGENKCAFSSQEPYFSYSGAFKCLRDGAGDVAFIRESTVFEDLSDEAERDEYELLCPDNTRKPVDKFKDCHLARVPSHAVVARSVNGKEDAIWNLLRQAQEKFGKDKSPKFQLFGSPSGQKDLLFKDSAIGFSRVPPRIDSGLYLGSGYFTAIQNLRKSEEEVAARRARVVWCAVGEQELRKCNQWSGLSEGSVTCSSASTTEDCIALVLKGEADAMSLDGGYVYTAGKCGLVPVLAENYKSQQSSDPDPNCVDRPVEGYLAVAVVRRSDTSLTWNSVKGKKSCHTAVDRTAGWNIPMGLLFNQTGSCKFDEYFSQSCAPGSDPRSNLCALCIGDEQGENKCVPNSNERYYGYTGAFRCLAENAGDVAFVKDVTVLQNTDGNNNEAWAKDLKLADFALLCLDGKRKPVTEARSCHLAMAPNHAVVSRMDKVERLKQVLLHQQAKFGRNGSDCPDKFCLFQSETKNLLFNDNTECLARLHGKTTYEKYLGPQYVAGITNLKKCSTSPLLEACEFLRK

Columns and labels:
SARS-CoV-2 [1] = assay type: cell-based
SARS-CoV-2 [2] = assay type: cell-based; remark: listed apart in the source
SARS-CoV-2 [3] = assay type: cell-based; remark: listed apart in the source
SARS-CoV-2 [4] = experiment: microbe, parasite or virus in culture; assay type: cell-based
[5] = system: IFNβ and interferon-stimulated gene transcripts; assay type: cell-based, human; settings: virus-infected Huh7, MOI 0.2, 48 h, 6250 nM
SARS-CoV-2 [6] = experiment: Hit validation across cell systems; assay type: cell-based; settings: Huh7, LNCaP, Caco-2, Vero E6, iAEC2

Row | Molecule | viral replication (viral RNA by RT-qPCR) (SARS-CoV-2 [1]) | antiviral activity through a range of MOIs (SARS-CoV-2 [2]) | antiviral activity when added after infection (SARS-CoV-2 [2]) | antiviral activity at high MOI (SARS-CoV-2 [3]) | antiviral activity against SARS-CoV-2 in iAECs (SARS-CoV-2 [3]; iAEC2) | IC50 (SARS-CoV-2 [4]) [nM] | IFNβ and interferon-stimulated gene transcripts [5] | efficacy across all tested cell systems (SARS-CoV-2 [6]) | antiviral activity (iron chelation control) (SARS-CoV-2 [2]; Huh7, 6,250 nM)
1 | B1 | dose-dependent inhibition of viral replication | retained antiviral activity | maintained antiviral activity | retained antiviral activity | dose-responsive antiviral activity | 440 | up-regulation | maintained efficacy across all tested cell systems | 
2 | B2 |  |  |  |  |  |  |  |  | retained activity
3 | B3 |  |  |  | retained antiviral activity |  |  |  |  | 
